In PMC10912661 (Scientific Reports, 2024):

Experiments:
Settings in all cases: both partners purified
[1] = target: human hemoglobin purified from donor blood (carboxyhemoglobin form, for crystallography) (human, UniProt P69905 1-142; P68871 1-147); assay: crystal structure
[2] = target: T1, β-chain of human hemoglobin (in the Hb tetramer of the crystal) (human, UniProt P68871 1-147); assay: crystal structure
T1 construct: also called β-chain of Hb; chain ß; source: purified from human blood of a single healthy donor, as part of Hb

[3] = target: T2, human hemoglobin (bought powder, gel-filtered, for in vitro assays) (human, UniProt P69905 1-142; P68871 1-147); assay: SPR
[4] = target: T2, human hemoglobin (bought powder, …); assay: SPR; remark: listed apart in the source

T2 sequence (P69905 whole entry, chain 1 of 2): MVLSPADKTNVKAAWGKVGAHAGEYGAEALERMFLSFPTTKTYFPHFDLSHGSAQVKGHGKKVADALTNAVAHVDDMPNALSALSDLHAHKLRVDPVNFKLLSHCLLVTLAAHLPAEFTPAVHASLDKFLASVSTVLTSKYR
T2 sequence (P68871 whole entry, chain 2 of 2): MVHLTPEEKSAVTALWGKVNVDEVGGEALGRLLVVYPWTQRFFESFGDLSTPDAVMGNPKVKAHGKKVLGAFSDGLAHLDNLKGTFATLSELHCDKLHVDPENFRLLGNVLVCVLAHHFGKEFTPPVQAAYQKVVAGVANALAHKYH
T1 sequence (P68871 whole entry): as the sequence (P68871 whole entry, chain 2 of 2) above
human hemoglobin purified from donor blood (carboxyhemoglobin form, for crystallography), sequence (P69905 whole entry, chain 1 of 2): as the sequence (P69905 whole entry, chain 1 of 2) above
human hemoglobin purified from donor blood (carboxyhemoglobin form, for crystallography), sequence (P68871 whole entry, chain 2 of 2): as the sequence (P68871 whole entry, chain 2 of 2) above

B1: hemoglobin-interacting domain 2 (HID2) of Shr, residues 169-294, wild type (domain or fragment)
chain: SGKNTANLSLITKLSQEDGAILFPEIDRYSDNKQIKALTQQITKVTVNGTVYKDLISDSVKDTNGWVSNMTGLHLGTKAFKDGENTIVISSKGFEDVTITVTKKDGQIHFVSAKQKQHVTAEDRQS
notes: also called WT; WT HID2; source: E. coli BL21(DE3), pET28b, purified (Ni-NTA, TEV cleavage, second Ni column, SEC Superdex-75)
How did the “stoichiometry N” value [1] turn out when B1 was run?
The value was 3 HID2 per Hb tetramer.

Does B1 bind [2]?
Result: binds

What about the Kd [3] of the same binder?
Its Kd is 22 ± 0.12 µM.

What about the koff [3] of the same binder?
The koff was 0.65 ± 0.025 s⁻¹.

And the kon [3]?
The kon was 30000 ± 160 M⁻¹ s⁻¹.

And the Kd [4]?
The Kd was 25 µM.
